Laboratory results reported in patent publication EP4682166A1 (Guangzhou Enmai Biotechnology Co., Ltd, dated 2026).

T1: human NMI (N-myc Interacting protein), recombinant protein (human, UniProt Q13287 1-307, limits assumed)
T1 construct: Gene ID: 9111; also called hNMI; antigen
T1 sequence (looked up): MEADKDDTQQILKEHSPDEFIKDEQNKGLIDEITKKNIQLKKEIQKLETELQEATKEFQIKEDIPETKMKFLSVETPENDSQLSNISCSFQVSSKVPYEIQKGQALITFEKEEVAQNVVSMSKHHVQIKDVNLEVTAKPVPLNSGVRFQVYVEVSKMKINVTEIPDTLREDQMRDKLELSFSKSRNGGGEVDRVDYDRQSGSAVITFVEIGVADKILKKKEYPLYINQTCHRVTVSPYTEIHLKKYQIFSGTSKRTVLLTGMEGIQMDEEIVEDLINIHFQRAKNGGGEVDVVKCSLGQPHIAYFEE

T2: NMI-flag overexpressed protein (293T cells transfected with the hNMI-flag plasmid) (human) (UniProt Q13287)
T2 sequence (looked up): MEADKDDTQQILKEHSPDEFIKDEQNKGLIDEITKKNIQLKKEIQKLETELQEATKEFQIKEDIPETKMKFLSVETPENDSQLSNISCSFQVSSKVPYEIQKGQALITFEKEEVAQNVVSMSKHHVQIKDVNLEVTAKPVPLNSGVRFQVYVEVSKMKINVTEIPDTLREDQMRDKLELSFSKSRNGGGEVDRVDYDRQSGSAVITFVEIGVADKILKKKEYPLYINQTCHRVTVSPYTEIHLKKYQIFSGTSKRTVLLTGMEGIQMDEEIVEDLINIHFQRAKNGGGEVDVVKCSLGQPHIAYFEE

T3: human NMI (N-myc Interacting protein) (human) (UniProt Q13287)
T3 sequence (looked up): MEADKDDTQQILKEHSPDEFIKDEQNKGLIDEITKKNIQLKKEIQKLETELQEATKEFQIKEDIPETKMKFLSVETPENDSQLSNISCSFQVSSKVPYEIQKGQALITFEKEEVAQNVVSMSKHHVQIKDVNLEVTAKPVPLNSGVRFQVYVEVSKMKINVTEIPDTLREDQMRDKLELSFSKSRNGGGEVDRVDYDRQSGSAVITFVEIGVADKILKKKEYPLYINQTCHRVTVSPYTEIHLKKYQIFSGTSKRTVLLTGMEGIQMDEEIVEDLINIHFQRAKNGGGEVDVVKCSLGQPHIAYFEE

B1: monoclonal antibody B-8 (antibody, V domains shown)
VH: QSLEESGGDLVKPGASLTLTCTASGFSFSSSYYMCWVRQAPGKGLEWIACIYAGSSGSTYYASWAKGRFTISKTSSTTVTLQMTSLTAADTATYFCAREYSYDDYGDFWGFNLWGPGTLVTVSS
VL: ALVMTQTPSSVSAAVGGTVTINCQASQNIYTNLAWYQQKPGQPPKLLIYGASNLESGVPSRFKGSGSGTEYTLTISDLECDDAATYYCQSSLYSRIADRANAFGGGTEVVVK
notes: Rabbit monoclonal antibody; also called B8-1
B2: acridinium ester-labeled monoclonal antibody B-8 (antibody, V domains shown)
VH: QSLEESGGDLVKPGASLTLTCTASGFSFSSSYYMCWVRQAPGKGLEWIACIYAGSSGSTYYASWAKGRFTISKTSSTTVTLQMTSLTAADTATYFCAREYSYDDYGDFWGFNLWGPGTLVTVSS
VL: ALVMTQTPSSVSAAVGGTVTINCQASQNIYTNLAWYQQKPGQPPKLLIYGASNLESGVPSRFKGSGSGTEYTLTISDLECDDAATYYCQSSLYSRIADRANAFGGGTEVVVK
modifications: acridinium ester label on the antibody, site not stated
B3: monoclonal antibody 240B10-1 (antibody, V domains shown)
VH: QSLEESGGRLVTPGGSLTLTCTVSGIDLSSYTMGWVRQAPGKGLEYIGIISGGGRTYYASWAKGRFTISKTSSTTVDLKVTSLTTEDTATYFCARIYTLWGQGTLVTVSS
VL: QVLTQTLASVSAAVGGTVTINCQSSQSVYNNDYLAWFQQKSGQPPKQLIHSASKLASGVPSRFKGSGSGTQFTLTINDVQCDDAATYYCLGGYDCYSADCNVFGGGTEVVVK
notes: Rabbit monoclonal antibody

Key:
[1] = molecular target: T1, human NMI (N-myc Interacting protein), …; experiment: indirect ELISA, coated hNMI
[2] = molecular target: T1, human NMI (N-myc Interacting protein), …; experiment: sandwich ELISA; detection 39B4-1-biotin; hNMI 33.333 ng/mL
[3] = molecular target: T1, human NMI (N-myc Interacting protein), …; experiment: sandwich ELISA; detection 94C4-1-biotin 1µg/mL; hNMI 97.656 pg/mL
[4] = molecular target: T1, human NMI (N-myc Interacting protein), …; experiment: sandwich ELISA; detection 94C4-1-biotin 1µg/mL; hNMI 781.250 pg/mL
[5] = molecular target: T1, human NMI (N-myc Interacting protein), …; experiment: sandwich ELISA; detection 94C4-1-biotin 0.5µg/mL; hNMI 48.828 pg/mL
[6] = molecular target: T1, human NMI (N-myc Interacting protein), …; experiment: sandwich ELISA; detection 94C4-1-biotin 0.5µg/mL; hNMI 195.313 pg/mL
[7] = molecular target: T1, human NMI (N-myc Interacting protein), …; experiment: sandwich ELISA; detection 94C4-1-biotin 0.5µg/mL; hNMI 781.250 pg/mL
[8] = molecular target: T1, human NMI (N-myc Interacting protein), …; experiment: sandwich ELISA; detection 94C4-1-biotin 1µg/mL; hNMI 6,250.000 pg/mL
[9] = molecular target: T1, human NMI (N-myc Interacting protein), …; experiment: sandwich ELISA; detection 94C4-1-biotin 0.5µg/mL; hNMI 12,500.000 pg/mL
[10] = molecular target: T1, human NMI (N-myc Interacting protein), …; experiment: sandwich ELISA; detection 94C4-1-biotin 0.5µg/mL; hNMI 25,000.000 pg/mL
[11] = molecular target: T2, NMI-flag overexpressed protein (293T cells transfected with the hNMI-flag plasmid) (human); experiment: sandwich ELISA; detection 94C4-1-biotin; cell supernatant of NMI-flag 293T, replicate 1
[12] = molecular target: T2, NMI-flag overexpressed protein (293T cells transfected with the hNMI-flag plasmid) (human); experiment: sandwich ELISA; detection 94C4-1-biotin; cell supernatant of NMI-flag 293T, replicate 2
[13] = molecular target: T3, human NMI (N-myc Interacting protein) (human); experiment: magnetic-bead chemiluminescent sandwich; capture 98G10 beads (0.5 mg 98G10), detection acridinium-B-8; hNMI 400 pg/ml
[14] = molecular target: T3, human NMI (N-myc Interacting protein) (human); experiment: magnetic-bead chemiluminescent sandwich; capture 98G10 beads (1.0 mg 98G10), detection acridinium-B-8; hNMI 400 pg/ml
[15] = molecular target: T3, human NMI (N-myc Interacting protein) (human); experiment: magnetic-bead chemiluminescent sandwich; capture 98G10 beads (0.5 mg 98G10), detection acridinium-B-8; hNMI 1000 pg/ml
[16] = molecular target: T3, human NMI (N-myc Interacting protein) (human); experiment: magnetic-bead chemiluminescent sandwich; capture 98G10 beads (0.5 mg 98G10), detection acridinium-B-8; hNMI 2000 pg/ml
[17] = molecular target: T3, human NMI (N-myc Interacting protein) (human); experiment: magnetic-bead chemiluminescent sandwich; capture 98G10 beads (1.0 mg 98G10), detection acridinium-B-8; hNMI 2000 pg/ml
[18] = molecular target: T3, human NMI (N-myc Interacting protein) (human); experiment: magnetic-bead chemiluminescent sandwich; capture 98G10 beads, detection acridinium-B-8 (1.0 mg B-8 labelled); hNMI 100 pg/mL
[19] = molecular target: T3, human NMI (N-myc Interacting protein) (human); experiment: magnetic-bead chemiluminescent sandwich; capture 98G10 beads, detection acridinium-B-8 (2.0 mg B-8 labelled); hNMI 400 pg/mL
[20] = molecular target: T3, human NMI (N-myc Interacting protein) (human); experiment: magnetic-bead chemiluminescent sandwich; capture 98G10 beads, detection acridinium-B-8 (1.0 mg B-8 labelled); hNMI 1000 pg/mL
[21] = molecular target: T3, human NMI (N-myc Interacting protein) (human); experiment: magnetic-bead chemiluminescent sandwich, kit of Example 8-1; capture 98G10 beads, detection acridinium-B-8; series 2, hNMI 3600 pg/mL
[22] = molecular target: T3, human NMI (N-myc Interacting protein) (human); experiment: magnetic-bead chemiluminescent sandwich, kit of Example 8-1; capture 98G10 beads, detection acridinium-B-8; series 2, hNMI 5000 pg/mL
[23] = molecular target: T3, human NMI (N-myc Interacting protein) (human); experiment: magnetic-bead chemiluminescent sandwich, kit of Example 8-1; capture 98G10 beads, detection acridinium-B-8; series 2, hNMI 7500 pg/mL
[24] = molecular target: T3, human NMI (N-myc Interacting protein) (human); experiment: magnetic-bead chemiluminescent sandwich, kit of Example 8-1; capture 98G10 beads, detection acridinium-B-8; series 1, hNMI 12000 pg/mL

| Binder | EC50 [1] [mg/L] | OD450 [2] [OD450] | OD450 [3] [OD450] | OD450 [4] [OD450] | OD450 [5] [OD450] | OD450 [6] [OD450] | OD450 [7] [OD450] | OD450 [8] [OD450] | OD450 [9] [OD450] | OD450 [10] [OD450] | other results |
| --- | --- | --- | --- | --- | --- | --- | --- | --- | --- | --- | --- |
| B1 | 0.0444 | 2.43 | 0.15 | 0.288 | 0.102 | 0.134 | 0.265 | 1.3 | 2.03 | 2.71 | OD450 [11]: 0.897 OD450; OD450 [12]: 0.95 OD450 |
| B2 |  |  |  |  |  |  |  |  |  |  | Signal value [13]: 39900; Signal value [14]: 86800; Signal value [15]: 97600; Signal value [16]: 204000; Signal value [17]: 397000; Signal value [18]: 9490; Signal value [19]: 44600; Signal value [20]: 97600; Signal value [21]: 408000; Signal value [22]: 560000; Signal value [23]: 900000; Signal value [24]: 894000 |
| B3 | 0.0477 | 2.67 | 0.185 | 0.351 | 0.125 | 0.187 | 0.396 | 1.47 | 2.32 | 2.94 |  |
